Results on one substance are retold here after PMC7695563.

The target of the experiment is MG1113, IgG4 monoclonal anti-tissue factor pathway inhibitor (TFPI) antibody. The experiment can be described thus: SPR. In general terms: Surface plasmon resonance follows binding to a sensor surface in real time, without labels.

What is called Kd is a measure of binding affinity in units of concentration. Read a high Kd as a looser complex. For orientation: koff means the first-order rate constant of dissociation. What is called kon is the second-order rate constant of association.

“TFPI-α (tissue factor pathway inhibitor alpha) (from UniProt P10646-1 29-304) (natural protein)” returned a Kd of 46.7 pM, a koff of 0.000131 s⁻¹ and a kon of 2.82e+06 M⁻¹ s⁻¹.
